Assay results as given in patent publication EP4582451A1.

Columns and labels:
[1] = target: monkey thyroid-stimulating hormone receptor (TSHR) (monkey); test: flow cytometry (FACS), 293 cells overexpressing monkey TSHR; negative control
[2] = target: mouse thyroid-stimulating hormone receptor (TSHR) (mouse) (UniProt P47750); test: flow cytometry (FACS), 293 cells overexpressing mouse TSHR; negative control
[3] = target: human thyroid-stimulating hormone receptor (TSHR) (human) (UniProt P16473); test: flow cytometry (FACS), 293 cells overexpressing human TSHR; negative control
Sequence of human thyroid-stimulating hormone receptor (TSHR) (human) (P16473 21-764): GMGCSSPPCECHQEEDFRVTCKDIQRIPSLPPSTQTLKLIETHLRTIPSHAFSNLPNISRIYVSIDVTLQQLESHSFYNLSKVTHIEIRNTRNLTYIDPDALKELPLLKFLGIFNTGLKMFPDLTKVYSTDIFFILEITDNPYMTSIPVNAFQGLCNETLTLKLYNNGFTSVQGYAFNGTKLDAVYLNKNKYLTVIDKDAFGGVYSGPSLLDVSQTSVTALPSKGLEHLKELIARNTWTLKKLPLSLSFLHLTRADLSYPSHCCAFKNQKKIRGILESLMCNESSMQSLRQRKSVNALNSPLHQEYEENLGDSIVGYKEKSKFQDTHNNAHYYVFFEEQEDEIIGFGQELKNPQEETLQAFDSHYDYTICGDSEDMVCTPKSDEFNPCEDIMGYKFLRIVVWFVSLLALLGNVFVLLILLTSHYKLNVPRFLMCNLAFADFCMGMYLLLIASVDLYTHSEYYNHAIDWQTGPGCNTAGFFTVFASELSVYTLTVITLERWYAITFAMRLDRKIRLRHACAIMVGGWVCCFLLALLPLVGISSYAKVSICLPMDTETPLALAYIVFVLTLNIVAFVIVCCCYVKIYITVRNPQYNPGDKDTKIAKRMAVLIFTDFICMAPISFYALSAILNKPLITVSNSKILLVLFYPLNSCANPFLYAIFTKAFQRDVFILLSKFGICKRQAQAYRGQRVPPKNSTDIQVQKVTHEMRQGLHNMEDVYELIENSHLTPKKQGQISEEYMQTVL

Sequence of mouse thyroid-stimulating hormone receptor (TSHR) (mouse) (P47750 22-764): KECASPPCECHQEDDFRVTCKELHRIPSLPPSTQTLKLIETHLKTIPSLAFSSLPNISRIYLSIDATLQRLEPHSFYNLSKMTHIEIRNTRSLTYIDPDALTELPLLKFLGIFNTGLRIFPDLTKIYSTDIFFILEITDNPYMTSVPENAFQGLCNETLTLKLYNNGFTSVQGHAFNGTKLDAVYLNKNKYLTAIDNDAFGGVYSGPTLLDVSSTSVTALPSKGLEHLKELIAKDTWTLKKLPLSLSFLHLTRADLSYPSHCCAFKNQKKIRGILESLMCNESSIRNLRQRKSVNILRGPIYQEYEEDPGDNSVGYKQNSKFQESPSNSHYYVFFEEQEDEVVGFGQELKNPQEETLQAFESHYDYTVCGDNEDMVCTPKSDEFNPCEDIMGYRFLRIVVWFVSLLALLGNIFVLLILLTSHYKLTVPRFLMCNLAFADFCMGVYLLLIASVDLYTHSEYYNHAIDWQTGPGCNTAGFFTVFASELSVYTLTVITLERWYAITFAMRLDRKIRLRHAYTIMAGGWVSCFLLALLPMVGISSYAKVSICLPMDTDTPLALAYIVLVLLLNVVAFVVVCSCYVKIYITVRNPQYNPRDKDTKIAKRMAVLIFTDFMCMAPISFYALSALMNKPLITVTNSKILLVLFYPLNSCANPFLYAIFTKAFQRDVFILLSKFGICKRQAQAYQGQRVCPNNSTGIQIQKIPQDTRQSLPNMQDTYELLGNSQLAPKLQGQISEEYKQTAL
Sequence of monkey thyroid-stimulating hormone receptor (TSHR) (monkey) (A0A2K5 entry or part of it limits assumed, form in doubt): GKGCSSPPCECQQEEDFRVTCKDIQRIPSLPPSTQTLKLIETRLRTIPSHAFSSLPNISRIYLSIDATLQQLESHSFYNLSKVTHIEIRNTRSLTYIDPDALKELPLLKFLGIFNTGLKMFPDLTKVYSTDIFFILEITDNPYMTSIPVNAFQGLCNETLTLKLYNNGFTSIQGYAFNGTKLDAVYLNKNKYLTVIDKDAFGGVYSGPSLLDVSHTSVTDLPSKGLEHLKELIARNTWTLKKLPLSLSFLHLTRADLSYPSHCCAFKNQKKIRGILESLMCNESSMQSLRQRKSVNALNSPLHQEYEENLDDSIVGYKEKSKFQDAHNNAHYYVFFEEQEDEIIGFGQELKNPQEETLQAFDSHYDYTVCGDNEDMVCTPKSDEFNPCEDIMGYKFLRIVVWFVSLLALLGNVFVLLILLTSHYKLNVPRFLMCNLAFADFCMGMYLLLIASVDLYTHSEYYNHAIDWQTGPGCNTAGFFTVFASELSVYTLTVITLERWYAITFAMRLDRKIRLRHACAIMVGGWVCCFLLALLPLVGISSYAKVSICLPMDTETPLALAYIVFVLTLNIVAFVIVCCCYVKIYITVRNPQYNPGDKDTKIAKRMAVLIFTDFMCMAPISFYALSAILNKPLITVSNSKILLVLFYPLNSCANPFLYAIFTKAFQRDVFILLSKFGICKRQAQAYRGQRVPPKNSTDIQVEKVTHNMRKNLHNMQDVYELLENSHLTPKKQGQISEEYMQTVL

Max MFI [1]	Max MFI [2]	Max MFI [3]	Substance
3560	2130	3590	hIgG1 negative control (Biointron B117901) (antibody)
1770	1530	1690	hIgG4 negative control (Biointron B107804) (antibody)
